Experimental data from patent US5434246A, “Parathyroid hormone derivatives” (Takeda Chemical Industries, Ltd., priority 1992, dated 1995).
Values joined by “and” are separate entries in the source; they are usually repeats but may differ in a detail not shown here. Equal entries are not always repeated.

Molecular target: PTH receptor (mouse) (UniProt P41593)
Assay: not given
Conditions: not given

Row | Molecule | cAMP production in MC3T3-E1 cells, relative activity to hPTH(1-34) (relative activity to hPTH(1-34))
1 | [Arg^16,Gln^27 ]hPTH(1-34) (from UniProt P01270) (peptide) | 2.16
2 | [Arg^26,27 ]hPTH(1-34) (from UniProt P01270) (peptide) | 0.98
3 | [D-Ala^3 ]hPTH(1-34) (from UniProt P01270) (peptide) | 2.17
4 | [D-Lys^16 ]hPTH(1-34) (from UniProt P01270) (peptide) | 0.86
5 | [Gln^16 ]hPTH(1-34) (from UniProt P01270) (peptide) | 1.73
6 | [Gln^25,26,27 ]hPTH(1-34) (from UniProt P01270) (peptide) | 0.41
7 | [Gln^26,27 ]hPTH(1-34) (from UniProt P01270) (peptide) | 1.19
8 | [Glu^16 ]hPTH(1-34) (from UniProt P01270) (peptide) | 1.55
9 | [Hci^16,Gln^27 ]hPTH(1-34) (from UniProt P01270) (peptide) | 1.54
10 | [Lys^14,15,16,17 ]hPTH(1-34) (from UniProt P01270) (peptide) | 6.39
11 | [Lys^15,16,17 ]hPTH(1-34) (from UniProt P01270) (peptide) | 7.62
12 | [Lys^15,16,17,His^27 ]hPTH(1-34) (from UniProt P01270) (peptide) | 7.47
13 | [Lys^15,16,His^27 ]hPTH(1-34) (from UniProt P01270) (peptide) | 1.49
14 | [Lys^16 ]hPTH(1-34) (from UniProt P01270) (peptide) | 5.48 and 3.37
15 | [Lys^16,17 ]hPTH(1-34) (from UniProt P01270) (peptide) | 8.85
16 | [Lys^16,Asp^17 ]hPTH(1-34) (from UniProt P01270) (peptide) | 1.24
17 | [Orn^16,Gln^27 ]hPTH(1-34) (from UniProt P01270) (peptide) | 1.82
18 | [Thr^16 ]hPTH(1-34) (from UniProt P01270) (peptide) | 1.74
19 | [Thr^27 ]hPTH(1-34) (from UniProt P01270) (peptide) | 0.96

Molecular target: T1, PTH receptor (Mus musculus, UniProt P41593)
T1 construct: a mouse cranial bone-derived osteoblast-like cell strain, MC3T3-EI cells; endogenous in cells; host or cells: MC3T3-E1 mouse osteoblast-like cells
T1 sequence (P41593 27-591): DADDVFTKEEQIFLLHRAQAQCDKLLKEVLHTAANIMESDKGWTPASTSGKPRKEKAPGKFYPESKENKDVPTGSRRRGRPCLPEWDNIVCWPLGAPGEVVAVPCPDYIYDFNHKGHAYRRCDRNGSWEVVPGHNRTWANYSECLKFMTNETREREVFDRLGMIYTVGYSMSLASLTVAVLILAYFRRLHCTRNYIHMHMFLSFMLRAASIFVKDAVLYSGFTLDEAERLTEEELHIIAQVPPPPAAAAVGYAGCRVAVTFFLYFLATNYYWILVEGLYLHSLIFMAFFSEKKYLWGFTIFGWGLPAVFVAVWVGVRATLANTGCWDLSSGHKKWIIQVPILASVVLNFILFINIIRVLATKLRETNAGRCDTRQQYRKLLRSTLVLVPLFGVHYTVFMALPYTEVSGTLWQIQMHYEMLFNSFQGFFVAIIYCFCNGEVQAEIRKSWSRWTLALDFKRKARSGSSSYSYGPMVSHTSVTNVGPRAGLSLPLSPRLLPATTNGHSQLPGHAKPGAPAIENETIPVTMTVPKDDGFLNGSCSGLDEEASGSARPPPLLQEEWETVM
Assay: cAMP production in MC3T3-EI osteoblast-like cells (biological activity of PTH(1-34) derivatives)
Assay type: cell-based
Conditions: 0.01-100 nM derivative, room temperature 30 minutes, hPTH(1-34) standard = 1.00
Method: The biological activity of the PTH (1-34) derivatives was evaluated by a modified version of the method reported by Shigeno et al. in The Journal of Biological Chemistry 263, 18369-18377 (1988). A culture solution (Hank's solution, containing 20 mM N-2-hydroxyethylpiperazine-N'-2-ethanesulfonic acid-(HEPES), 0.1% bovine serum albumin and 0.5 mM isobutylmethyl-xanthine) containing a 0.01, 0.1, 1, 10 or 100 nM derivative was added in an amount of 100 μl to a mouse cranial bone-derived osteoblast-like cell strain, MC3T3-EI cells, cultivated on a 96-well multiplate (Nunclon, Nunc), followed by reaction at room temperature for 30 minutes. After addition of 100 μl of 0.2N hydrochloric acid, the mixture was immersed in boiling water for 2.5 minutes, and cyclic adenosine monophosphate (cAMP) produced by a PTH receptor was extracted from the cells. The total cAMP in the culture solution and the cells was assayed using a commercial radioimmunoassay kit (cyclic AMP [^125 I] kit "Du Pont-Daiichi", Daiichi Kagaku Yakuhin).

Row | Molecule | Biological Activity, Represented by Relative Activity to hPTH(1-34)
20 | CC[C@H](C)[C@H](NC(=O)[C@H](CCC(=O)O)NC(=O)[C@@H](C)NC(=O)[C@@H](NC(=O)[C@@H](N)CO)C(C)C)C(=O)N[C@@H](CCC(N)=O)C(=O)N[C@@H](CC(C)C)C(=O)N[C@@H](CCSC)C(=O)N[C@@H](Cc1c[nH]cn1)C(=O)N[C@@H](CC(N)=O)C(=O)N[C@@H](CC(C)C)C(=O)NCC(=O)N[C@@H](CCCCN)C(=O)N[C@@H](Cc1c[nH]cn1)C(=O)N[C@@H](CC(C)C)C(=O)N[C@@H](CC(N)=O)C(=O)N[C@@H](CO)C(=O)N[C@@H](CCSC)C(=O)N[C@@H](CCC(=O)O)C(=O)N[C@@H](CCCNC(=N)N)C(=O)N[C@H](C(=O)N[C@@H](CCC(=O)O)C(=O)N[C@@H](Cc1c[nH]c2ccccc12)C(=O)N[C@@H](CC(C)C)C(=O)N[C@@H](CCCNC(=N)N)C(=O)N[C@@H](CCCCN)C(=O)N[C@@H](CCCCN)C(=O)N[C@@H](CC(C)C)C(=O)N[C@@H](CCC(N)=O)C(=O)N[C@@H](CC(=O)O)C(=O)N[C@H](C(=O)N[C@@H](Cc1c[nH]cn1)C(=O)N[C@@H](CC(N)=O)C(=O)N[C@@H](Cc1ccccc1)C(=O)O)C(C)C)C(C)C [[D-Ala^3]hPTH(1-34)] | 2.17
21 | CC[C@H](C)[C@H](NC(=O)[C@H](CCC(=O)O)NC(=O)[C@H](CO)NC(=O)[C@@H](NC(=O)[C@@H](N)CO)C(C)C)C(=O)N[C@@H](CCC(N)=O)C(=O)N[C@@H](CC(C)C)C(=O)N[C@@H](CCSC)C(=O)N[C@@H](Cc1c[nH]cn1)C(=O)N[C@@H](CC(N)=O)C(=O)N[C@@H](CC(C)C)C(=O)NCC(=O)N[C@@H](CCCCN)C(=O)N[C@@H](Cc1c[nH]cn1)C(=O)N[C@@H](CC(C)C)C(=O)N[C@H](CCCCN)C(=O)N[C@@H](CO)C(=O)N[C@@H](CCSC)C(=O)N[C@@H](CCC(=O)O)C(=O)N[C@@H](CCCNC(=N)N)C(=O)N[C@H](C(=O)N[C@@H](CCC(=O)O)C(=O)N[C@@H](Cc1c[nH]c2ccccc12)C(=O)N[C@@H](CC(C)C)C(=O)N[C@@H](CCCNC(=N)N)C(=O)N[C@@H](CCCCN)C(=O)N[C@@H](CCCCN)C(=O)N[C@@H](CC(C)C)C(=O)N[C@@H](CCC(N)=O)C(=O)N[C@@H](CC(=O)O)C(=O)N[C@H](C(=O)N[C@@H](Cc1c[nH]cn1)C(=O)N[C@@H](CC(N)=O)C(=O)N[C@@H](Cc1ccccc1)C(=O)O)C(C)C)C(C)C [[D-Lys^16]hPTH(1-34)] | 0.86
22 | CC[C@H](C)[C@H](NC(=O)[C@H](CCC(=O)O)NC(=O)[C@H](CO)NC(=O)[C@@H](NC(=O)[C@@H](N)CO)C(C)C)C(=O)N[C@@H](CCC(N)=O)C(=O)N[C@@H](CC(C)C)C(=O)N[C@@H](CCSC)C(=O)N[C@@H](Cc1c[nH]cn1)C(=O)N[C@@H](CC(N)=O)C(=O)N[C@@H](CC(C)C)C(=O)NCC(=O)N[C@@H](CCCCN)C(=O)N[C@@H](Cc1c[nH]cn1)C(=O)N[C@@H](CC(C)C)C(=O)N[C@@H](CCC(N)=O)C(=O)N[C@@H](CO)C(=O)N[C@@H](CCSC)C(=O)N[C@@H](CCC(=O)O)C(=O)N[C@@H](CCCNC(=N)N)C(=O)N[C@H](C(=O)N[C@@H](CCC(=O)O)C(=O)N[C@@H](Cc1c[nH]c2ccccc12)C(=O)N[C@@H](CC(C)C)C(=O)N[C@@H](CCCNC(=N)N)C(=O)N[C@@H](CCCCN)C(=O)N[C@@H](CCCCN)C(=O)N[C@@H](CC(C)C)C(=O)N[C@@H](CCC(N)=O)C(=O)N[C@@H](CC(=O)O)C(=O)N[C@H](C(=O)N[C@@H](Cc1c[nH]cn1)C(=O)N[C@@H](CC(N)=O)C(=O)N[C@@H](Cc1ccccc1)C(=O)O)C(C)C)C(C)C [[Gln^16]hPTH(1-34)] | 1.73
23 | CC[C@H](C)[C@H](NC(=O)[C@H](CCC(=O)O)NC(=O)[C@H](CO)NC(=O)[C@@H](NC(=O)[C@@H](N)CO)C(C)C)C(=O)N[C@@H](CCC(N)=O)C(=O)N[C@@H](CC(C)C)C(=O)N[C@@H](CCSC)C(=O)N[C@@H](Cc1c[nH]cn1)C(=O)N[C@@H](CC(N)=O)C(=O)N[C@@H](CC(C)C)C(=O)NCC(=O)N[C@@H](CCCCN)C(=O)N[C@@H](Cc1c[nH]cn1)C(=O)N[C@@H](CC(C)C)C(=O)N[C@@H](CCC(=O)O)C(=O)N[C@@H](CO)C(=O)N[C@@H](CCSC)C(=O)N[C@@H](CCC(=O)O)C(=O)N[C@@H](CCCNC(=N)N)C(=O)N[C@H](C(=O)N[C@@H](CCC(=O)O)C(=O)N[C@@H](Cc1c[nH]c2ccccc12)C(=O)N[C@@H](CC(C)C)C(=O)N[C@@H](CCCNC(=N)N)C(=O)N[C@@H](CCCCN)C(=O)N[C@@H](CCCCN)C(=O)N[C@@H](CC(C)C)C(=O)N[C@@H](CCC(N)=O)C(=O)N[C@@H](CC(=O)O)C(=O)N[C@H](C(=O)N[C@@H](Cc1c[nH]cn1)C(=O)N[C@@H](CC(N)=O)C(=O)N[C@@H](Cc1ccccc1)C(=O)O)C(C)C)C(C)C [[Glu^16]hPTH(1-34)] | 1.55
